Reference: paper doi:10.1101/2023.08.25.554718 (2023)
Read-outs that look alike come from different tables or passages of the source.

Tests used:
[1] = target: T1, CX3CR1 nucleosome (human core histones, wild type) (human, UniProt P04908 1-124; O60814 1-124; P68431 1-136; P62805 1-103)
[2] = target: T1, CX3CR1 nucleosome (human core histones, …); assay: with scFv

B1: MBP-DBDC/EBPα (protein)
chain: MHLQPGHPTPPPTPVPSPHAAPALGAAGLPGPGSALKGLAGAHPDLRTGGGGGGSGAGAGKAKKSVDKNSNEYRVRRERNNIAVRKSRDKAKQRNVETQQKVLELTSDNDRLRKRVEQLSRELDTLRGIFRQLPESSLVKAMGNCA
- Kd [1]: 1700 nM
- Kd [2]: 1500 nM
